The source of these data is paper PMC8934645, “Discovery of potent and versatile CRISPR–Cas9 inhibitors engineered for chemically controllable genome editing”.

For data set [1], the target named is St3Cas9;AcrIIA24 (Streptococcus …, UniProt Q03JI6;A0A3G8FCC3 1-1388;1-104, |). In words: EMSA; sgRNA; AcrIIA24 added before DNA; supershift; 20 mM Tris-HCl pH 7.6, 150 mM KCl, 5 mM EDTA (Results text: 10 mM EDTA), 5 mM MgCl2, 1 mM DTT, 5% glycerol, 50 ug/ml heparin, 0.01% Tween 20, 100 ug/ml BSA; RNP and DNA steps 37 C 10 min, Acr RT 20 min; RNP 256 nM, DNA 20 nM; RNA EMSA 256 nM Cas9 and sgRNA, 37 C. The conditions noted are these: protein: recombinant;recombinant; tags: His (pET28a, Ni-NTA);tag removed by TEV; copies: 1;1; label: Cy5 on target strand; blunt. For orientation: In EMSA bound probe runs differently from free probe, usually more slowly.

The target of data set [2] is St1Cas9;AcrIIA30 (Streptococcus …, UniProt Q03LF7; 1-1121;, |). The data set can be described thus: EMSA; sgRNA; AcrIIA30 added after DNA; supershift; 20 mM Tris-HCl pH 7.6, 150 mM KCl, 5 mM EDTA (Results text: 10 mM EDTA), 5 mM MgCl2, 1 mM DTT, 5% glycerol, 50 ug/ml heparin, 0.01% Tween 20, 100 ug/ml BSA; RNP and DNA steps 37 C 10 min, Acr RT 20 min; RNP 256 nM, DNA 20 nM; RNA EMSA 256 nM Cas9 and sgRNA, 37 C. The conditions noted are these: protein: recombinant;recombinant; tags: His (pET28a, Ni-NTA);tag removed by TEV; copies: 1;1; label: Cy5 on target strand; blunt.

Data set [3] has as its target SpyCas9;AcrIIA32.1 (Streptococcus pyogenes;Streptococcus …, UniProt Q99ZW2; 1-1368;, |). The data set can be described thus: EMSA; sgRNA; AcrIIA32.1 added after DNA; supershift; 20 mM Tris-HCl pH 7.6, 150 mM KCl, 5 mM EDTA (Results text: 10 mM EDTA), 5 mM MgCl2, 1 mM DTT, 5% glycerol, 50 ug/ml heparin, 0.01% Tween 20, 100 ug/ml BSA; RNP and DNA steps 37 C 10 min, Acr RT 20 min; RNP 256 nM, DNA 20 nM; RNA EMSA 256 nM Cas9 and sgRNA, 37 C. The conditions noted are these: protein: recombinant;recombinant; tags: ;tag removed by TEV; label: Cy5 on target strand; blunt.

B1: Substrate DNA, St3Cas9 sgRNA target (dsDNA)
DNA 1: CTCACGGGTGTCATTCTCCACTCAGTGGCAGACCTTGCTCCCGCGAGGAGTAGTCG
DNA 2: CGACTACTCCTCGCGGGAGCAAGGTCTGCCACTGAGTGGAGAATGACACCCGTGAG
With B1, the binding result in data set [1] was “binds”.

B2: Substrate DNA, St1Cas9 sgRNA target (dsDNA)
DNA 1: B1 DNA 1
DNA 2: B1 DNA 2
Take B2: the binding result in data set [2] is on record as “binds”.

B3: Substrate DNA, SpyCas9 sgRNA target (dsDNA)
DNA 1: B1 DNA 1
DNA 2: B1 DNA 2
In the case of B3, the binding result in data set [3] was “binds”.
